This is an account of results in publication PMC5572738.

The target in this assay is T1, bacteriorhodopsin (BR) from Halobacterium salinarum (Halobacterium salinarum), P02945.
T1 chain: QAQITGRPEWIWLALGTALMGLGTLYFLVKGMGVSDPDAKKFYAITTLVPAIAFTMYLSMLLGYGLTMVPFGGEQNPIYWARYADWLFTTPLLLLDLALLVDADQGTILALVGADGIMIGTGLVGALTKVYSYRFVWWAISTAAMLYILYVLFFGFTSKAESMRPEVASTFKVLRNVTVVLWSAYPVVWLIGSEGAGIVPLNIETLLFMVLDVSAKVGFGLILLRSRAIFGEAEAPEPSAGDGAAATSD
Nature of the assay: SEC; Sephadex 200 column, BR solubilised in DDM; elution position compared with Blue Dextran, alcohol dehydrogenase (150 kDa) and bovine serum albumin (66 kDa). As to conditions: remark: other sources report otherwise. For orientation: SEC sorts molecules by how far they enter the pores of the column.

B1: bacteriorhodopsin (BR) from Halobacterium salinarum, P02945 14-262 (natural protein)
chain: QAQITGRPEWIWLALGTALMGLGTLYFLVKGMGVSDPDAKKFYAITTLVPAIAFTMYLSMLLGYGLTMVPFGGEQNPIYWARYADWLFTTPLLLLDLALLVDADQGTILALVGADGIMIGTGLVGALTKVYSYRFVWWAISTAAMLYILYVLFFGFTSKAESMRPEVASTFKVLRNVTVVLWSAYPVVWLIGSEGAGIVPLNIETLLFMVLDVSAKVGFGLILLRSRAIFGEAEAPEPSAGDGAAATSD
modifications: here or on the partner: retinal chromophore attached in a Schiff base linkage to a lysine residue in the seventh helix; retinal chromophore attached in a Schiff base linkage to a lysine residue in the seventh helix
A word on the stoichiometry N: it is a count of units in the complex or per binding partner. B1 came in with a stoichiometry N of 3.
